The values below come from paper PMC10132808, “Stimulation of the catalytic activity of the tyrosine kinase Btk by the adaptor protein Grb2” (eLife, 2023).

This experiment has as its target T1, Grb2 labeled with Alexa Fluor 647 (UniProt P62993 1-217, Alexa Fluor 647 C2 maleimide on a surface cysteine (at most one per molecule; about 17% labeling overall)).
T1 construct: The labeled cysteine is not identified; Only about 17% of the preparation carries the dye; also called Grb2-AlexaFluor647; source: E. coli BL21(DE3), purified (HisTrap, TEV cleavage, gel filtration), labeled by maleimide coupling; not shown: His6, N-terminal, cleaved
Kind of experiment: TIRF microscopy of recruitment to supported-lipid bilayers; N-terminally His-tagged Btk constructs tethered to bilayers with 4% DGS-NTA(Ni), 96% DOPC, washed after equilibration; Grb2-Alexa Fluor 647 added; fluorescence at the membrane over time. Conditions: both partners purified.

T1 sequence (P62993 whole entry): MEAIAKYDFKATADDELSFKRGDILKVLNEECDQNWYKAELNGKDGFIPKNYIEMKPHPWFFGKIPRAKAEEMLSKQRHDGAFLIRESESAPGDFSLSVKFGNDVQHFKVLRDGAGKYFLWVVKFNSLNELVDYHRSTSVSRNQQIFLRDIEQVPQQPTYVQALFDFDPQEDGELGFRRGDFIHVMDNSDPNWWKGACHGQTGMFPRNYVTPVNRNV

B1: His-tagged Btk proline-rich linker (domain or fragment, human, UniProt Q06187 171-214, looked up)
chain: RNGSLKPGSSHRKTKKPLPPTPEEDQILKKPLPPEPAAAPVSTS
notes: Btk, human, residues 171-214 (proline-rich linker between the PH-TH module and the SH3 domain); A SUMO module may also be kept, because the protease step was left out; also called the isolated proline-rich linker; source: E. coli BL21(DE3), purified (HisTrap, gel filtration; protease step left out); not shown: His6, N-terminal, kept
On to B1, for which the binding result was “binds”.
